Test: melting temperature; UV melt of duplexes

Substance: CTCAACTTGCGGTAAATAAATCGCTTAATC+GATTAAGCGATTTATTTACCGCAAGTTGAG ((((((((((((((((((((((((((((((+))))))))))))))))))))))))))))))
- Tm (sodium 0.07 M, strand 2 µM): 60.9 °C
- Tm (sodium 0.12 M, strand 2 µM): 64.8 °C
- Tm (sodium 0.22 M, strand 2 µM): 68.7 °C
- Tm (sodium 0.62 M, strand 2 µM): 74.4 °C
- Tm (sodium 1.02 M, strand 2 µM): 75.5 °C

Substance: ATATATAGCTATATAT+ATATATAGCTATATAT ((((((((((((((((+))))))))))))))))
- Tm (sodium 0.12 M, strand 5 µM): 39.1 °C

Substance: AGAAGGGAGAGAAAAAGAAA+TTTCTTTTTCTCTCCCTTCT ((((((((((((((((((((+))))))))))))))))))))
- Tm (sodium 1 M, strand 2 µM): 61.9 °C

Substance: CAGCAGCAGCAGCAGCAGCAGCAGCAGCAG+CTGCTGCTGCTGCTGCTGCTGCTGCTGCTG ((((((((((((((((((((((((((((((+))))))))))))))))))))))))))))))
- Tm (sodium 0.15 M, strand 0.0001 M): 83 °C

Substance: AATATATATAGAGTGCGCGCAA+TTGCGCGCACTCTATATATATT ((((((((((((((((((((((+))))))))))))))))))))))
- Tm (sodium 0.12 M, strand 3.3 µM): 64.1 °C

Substance: GCCAACTCCGTCGCCGTTCGTGCGC+GCGCACGAACGGCGACGGAGTTGGC (((((((((((((((((((((((((+)))))))))))))))))))))))))
- Tm (sodium 0.07 M, strand 2 µM): 73.5 °C
- Tm (sodium 0.12 M, strand 2 µM): 76.5 °C
- Tm (sodium 0.22 M, strand 2 µM): 80.6 °C
- Tm (sodium 0.62 M, strand 2 µM): 83.2 °C
- Tm (sodium 1.02 M, strand 2 µM): 84.6 °C

Substance: CGAGCTTATCCCTATCCCTC+GAGGGATAGGGATAAGCTCG ((((((((((((((((((((+))))))))))))))))))))
- Tm (sodium 0.07 M, strand 2 µM): 56 °C
- Tm (sodium 0.12 M, strand 2 µM): 60.2 °C
- Tm (sodium 0.22 M, strand 2 µM): 64.1 °C
- Tm (sodium 0.62 M, strand 2 µM): 68.5 °C
- Tm (sodium 1.02 M, strand 2 µM): 70.3 °C

Substance: ACCGACGACGCTGATCCGAT+ATCGGATCAGCGTCGTCGGT ((((((((((((((((((((+))))))))))))))))))))
- Tm (sodium 0.07 M, strand 2 µM): 66 °C
- Tm (sodium 0.12 M, strand 2 µM): 69.1 °C
- Tm (sodium 0.22 M, strand 2 µM): 72.6 °C
- Tm (sodium 0.62 M, strand 2 µM): 76.8 °C
- Tm (sodium 1.02 M, strand 2 µM): 77.3 °C

Substance: CGGGACCAACTAAAGGAAAT+ATTTCCTTTAGTTGGTCCCG ((((((((((((((((((((+))))))))))))))))))))
- Tm (sodium 0.07 M, strand 2 µM): 53.7 °C
- Tm (sodium 0.12 M, strand 2 µM): 57.7 °C
- Tm (sodium 0.22 M, strand 2 µM): 61.7 °C
- Tm (sodium 0.62 M, strand 2 µM): 66.7 °C
- Tm (sodium 1.02 M, strand 2 µM): 68.5 °C

Substance: GTATAACCGGTTATAC+GTATAACCGGTTATAC ((((((((((((((((+))))))))))))))))
- Tm (sodium 1 M, strand 0.0001 M): 65.9 °C

Substance: CATATTGGCCAATATG+CATATTGGCCAATATG ((((((((((((((((+))))))))))))))))
- Tm (sodium 1 M, strand 0.0001 M): 65.3 °C

Substance: TCGGAGAAATCACTGAGCTGCCTGAGAAGA+TCTTCTCAGGCAGCTCAGTGATTTCTCCGA ((((((((((((((((((((((((((((((+))))))))))))))))))))))))))))))
- Tm (sodium 0.07 M, strand 2 µM): 66.3 °C
- Tm (sodium 0.12 M, strand 2 µM): 70.4 °C
- Tm (sodium 0.22 M, strand 2 µM): 74.1 °C
- Tm (sodium 0.62 M, strand 2 µM): 79 °C
- Tm (sodium 1.02 M, strand 2 µM): 80.9 °C

Substance: AAAAAAAAAGCTTTTTTTTT+AAAAAAAAAGCTTTTTTTTT ((((((((((((((((((((+))))))))))))))))))))
- Tm (sodium 0.12 M, strand 5 µM): 51 °C

Substance: TGATTCTACCTATGTGATTT+AAATCACATAGGTAGAATCA ((((((((((((((((((((+))))))))))))))))))))
- Tm (sodium 0.07 M, strand 2 µM): 49.1 °C
- Tm (sodium 0.12 M, strand 2 µM): 53.5 °C
- Tm (sodium 0.22 M, strand 2 µM): 57.4 °C
- Tm (sodium 0.62 M, strand 2 µM): 62.3 °C
- Tm (sodium 1.02 M, strand 2 µM): 64.4 °C

Substance: ACGGGTCCCCGCACCGCACCGCCAG+CTGGCGGTGCGGTGCGGGGACCCGT (((((((((((((((((((((((((+)))))))))))))))))))))))))
- Tm (sodium 0.07 M, strand 2 µM): 76.8 °C
- Tm (sodium 0.12 M, strand 2 µM): 79.9 °C
- Tm (sodium 0.22 M, strand 2 µM): 84 °C
- Tm (sodium 0.62 M, strand 2 µM): 87.1 °C
- Tm (sodium 1.02 M, strand 2 µM): 88.3 °C
